# Measurements published in PMC3522258.
# T1: RIG-I (ΔCARDs) (human, UniProt O95786 229-925)
# T1 sequence: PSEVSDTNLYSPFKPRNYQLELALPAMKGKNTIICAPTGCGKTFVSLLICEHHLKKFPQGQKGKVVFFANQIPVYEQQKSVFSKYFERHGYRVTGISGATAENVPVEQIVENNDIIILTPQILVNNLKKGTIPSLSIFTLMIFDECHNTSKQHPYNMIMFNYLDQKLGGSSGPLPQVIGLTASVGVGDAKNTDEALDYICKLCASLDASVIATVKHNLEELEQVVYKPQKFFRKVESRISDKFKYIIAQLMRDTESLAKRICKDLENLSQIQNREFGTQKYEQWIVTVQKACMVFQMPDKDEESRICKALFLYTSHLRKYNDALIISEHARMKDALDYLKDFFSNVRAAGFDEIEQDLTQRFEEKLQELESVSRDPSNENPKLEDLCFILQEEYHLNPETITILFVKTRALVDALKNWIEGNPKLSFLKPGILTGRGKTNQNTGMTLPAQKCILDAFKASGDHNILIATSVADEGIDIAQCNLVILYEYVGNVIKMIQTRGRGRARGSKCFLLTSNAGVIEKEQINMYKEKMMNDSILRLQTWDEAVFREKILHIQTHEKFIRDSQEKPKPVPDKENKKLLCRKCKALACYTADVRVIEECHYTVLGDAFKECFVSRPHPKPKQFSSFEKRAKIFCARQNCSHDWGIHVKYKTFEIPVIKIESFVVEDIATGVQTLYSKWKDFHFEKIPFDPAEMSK
# T2: CTD (human, UniProt O95786 792-925)
# T2 sequence: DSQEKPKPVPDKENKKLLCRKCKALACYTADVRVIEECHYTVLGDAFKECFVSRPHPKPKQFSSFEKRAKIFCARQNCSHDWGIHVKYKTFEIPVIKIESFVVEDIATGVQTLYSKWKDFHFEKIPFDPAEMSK
# T3: full-length RIG-I (human, UniProt O95786 1-925)
# T3 sequence: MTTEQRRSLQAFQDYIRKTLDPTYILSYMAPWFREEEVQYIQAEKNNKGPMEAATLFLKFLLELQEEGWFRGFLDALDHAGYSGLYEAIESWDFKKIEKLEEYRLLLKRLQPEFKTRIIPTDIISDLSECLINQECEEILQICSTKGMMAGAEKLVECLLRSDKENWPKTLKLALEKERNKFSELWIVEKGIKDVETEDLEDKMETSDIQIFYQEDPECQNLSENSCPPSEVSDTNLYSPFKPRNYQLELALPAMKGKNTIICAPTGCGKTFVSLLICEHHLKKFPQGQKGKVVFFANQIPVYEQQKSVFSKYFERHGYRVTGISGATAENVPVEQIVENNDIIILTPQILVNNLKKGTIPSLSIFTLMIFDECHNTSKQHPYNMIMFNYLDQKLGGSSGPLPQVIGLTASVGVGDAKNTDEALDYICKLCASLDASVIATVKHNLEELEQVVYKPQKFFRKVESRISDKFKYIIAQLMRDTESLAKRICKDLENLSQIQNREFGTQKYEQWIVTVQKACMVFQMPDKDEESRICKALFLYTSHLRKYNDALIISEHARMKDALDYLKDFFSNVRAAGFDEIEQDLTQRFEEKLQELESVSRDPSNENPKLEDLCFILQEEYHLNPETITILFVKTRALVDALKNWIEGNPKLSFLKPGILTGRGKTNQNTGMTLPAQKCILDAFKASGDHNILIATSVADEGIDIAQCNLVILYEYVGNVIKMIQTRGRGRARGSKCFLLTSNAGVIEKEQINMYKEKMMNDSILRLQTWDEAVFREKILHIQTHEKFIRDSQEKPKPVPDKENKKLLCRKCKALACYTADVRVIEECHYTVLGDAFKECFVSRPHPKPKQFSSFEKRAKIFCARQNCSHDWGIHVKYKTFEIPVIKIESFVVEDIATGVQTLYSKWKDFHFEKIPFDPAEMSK
# T4: HD (helicase domain) (human, UniProt O95786 229-793)
# T4 sequence: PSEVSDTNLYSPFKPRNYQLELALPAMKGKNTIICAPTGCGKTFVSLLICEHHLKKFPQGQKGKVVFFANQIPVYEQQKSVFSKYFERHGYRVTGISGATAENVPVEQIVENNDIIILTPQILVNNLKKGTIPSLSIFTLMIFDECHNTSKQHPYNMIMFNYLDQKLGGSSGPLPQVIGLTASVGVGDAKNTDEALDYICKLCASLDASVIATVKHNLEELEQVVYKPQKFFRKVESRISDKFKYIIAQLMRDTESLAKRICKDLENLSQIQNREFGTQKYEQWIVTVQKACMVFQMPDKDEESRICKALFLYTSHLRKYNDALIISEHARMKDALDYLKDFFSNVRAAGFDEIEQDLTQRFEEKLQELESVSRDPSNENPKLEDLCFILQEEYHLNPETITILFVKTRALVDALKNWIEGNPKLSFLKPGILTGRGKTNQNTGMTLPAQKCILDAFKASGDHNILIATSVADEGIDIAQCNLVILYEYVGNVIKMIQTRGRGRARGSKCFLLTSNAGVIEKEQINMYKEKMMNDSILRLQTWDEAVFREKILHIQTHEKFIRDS
# B1: 5'-OH 14 dsRNA, unlabeled competitor (dsRNA)
# RNA 1: ACCUCCCACCCCCG
# RNA 2: CGGGGGUGGGAGGU
# modifications: 5'-OH
# B2: 5'-OH 14 dsRNA (dsRNA)
# RNA 1: ACCUCCCACCCCCG
# RNA 2: CGGGGGUGGGAGGU
# modifications: 5'-OH on top strand
# B3: 5'-ppp 14 dsRNA (dsRNA)
# RNA 1: ACCUCCCACCCCCG
# RNA 2: CGGGGGUGGGAGGU
# modifications: 5'-triphosphate on top strand
# Key:
# [1] = target: T1, RIG-I (ΔCARDs); experiment: competition
# [2] = target: T1, RIG-I (ΔCARDs); experiment: EMSA
# [3] = target: T2, CTD; experiment: EMSA
# [4] = target: T3, full-length RIG-I; experiment: EMSA
# [5] = target: T4, HD (helicase domain); experiment: EMSA
binder,measurement,setting,value
B1,Ki,[1],13 nM
B2,Kd,[2],3.6 ± 0.9 nM
same,Kd,[3],5900 ± 750 nM
same,Kd,[4],20 ± 3 nM
B3,Kd,[2],0.041 ± 0.002 nM
same,Kd,[5],760 ± 20 nM
same,Kd,[3],0.5 ± 0.06 nM
same,Kd,[4],0.159 ± 0.02 nM
